US7247704

Target: Human Lung Tryptase (human) (UniProt Q15661)
Assay: cell-based or functional assay

Sequence of UniProt Q15661 (Q15661 31-275 limits assumed): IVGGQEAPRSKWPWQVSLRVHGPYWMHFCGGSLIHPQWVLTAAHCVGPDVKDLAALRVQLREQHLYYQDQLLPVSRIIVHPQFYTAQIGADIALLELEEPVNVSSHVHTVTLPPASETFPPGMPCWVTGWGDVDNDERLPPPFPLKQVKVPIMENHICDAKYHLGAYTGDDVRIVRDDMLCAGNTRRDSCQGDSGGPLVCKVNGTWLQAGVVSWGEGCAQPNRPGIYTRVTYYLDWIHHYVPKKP

Substance “recombinant human Secretory Leukocyte Protease Inhibitor (rhSLPI) (from UniProt P03973 26-132)” has a % Inhibition of tryptase (cleavage of vasoactive intestinal peptide, RP-HPLC; example calculation) of 36.7%.
